This is an account of results in patent US20190144517A1 (SHANGHAI JW INFLINHIX, published 2019).

The experiment concerns the target T1, TNF receptors on L929 cells (mouse, UniProt P25118 30-454).
T1 construct: whole, on cells; The result text says 'TNF receptors'; the staining used an anti-TNFR1 antibody; also called cell surface receptors; TNFR1
T1 sequence (looked up): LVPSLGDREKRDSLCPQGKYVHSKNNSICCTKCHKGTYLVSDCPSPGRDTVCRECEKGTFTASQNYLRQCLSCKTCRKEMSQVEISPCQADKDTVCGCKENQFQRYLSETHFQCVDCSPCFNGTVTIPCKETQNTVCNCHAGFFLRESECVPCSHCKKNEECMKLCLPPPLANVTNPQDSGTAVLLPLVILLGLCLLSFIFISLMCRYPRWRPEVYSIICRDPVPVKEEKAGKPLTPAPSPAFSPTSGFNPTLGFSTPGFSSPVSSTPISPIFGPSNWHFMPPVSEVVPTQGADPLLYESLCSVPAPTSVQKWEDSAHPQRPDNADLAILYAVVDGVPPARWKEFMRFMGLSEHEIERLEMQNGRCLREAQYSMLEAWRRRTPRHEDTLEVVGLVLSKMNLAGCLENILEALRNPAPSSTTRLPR
As to the kind of experiment: confocal immunofluorescence on L929 cells. On the procedure: The cells were fixed with 4% paraformaldehyde (PBS formulation) were for 10 minutes, blocked with phosphate buffer containing 0.5% BSA and 0.1% cold water fish gelatin for 15 minutes, and then incubated with rabbit anti-TNFR1 antibody (Abeam) for 1 hour. The cells were washed with PBS and then incubated with the relevant secondary antibody coupled to Alexa Fluor 488 or Alexa Fluor 568 (Invitrogen). Then the sample washed with PBS was mounted with Gelvatol/DABCO (Sigma-Aldrich). DNA was counterstained with DAPI (Sigma-Aldrich). All samples were analyzed by fluorescence microscopy at 60× using Nikon Eclipse 80i. Images were taken with NIS-Elements AR3.0 software using Hamamatsu camera.

B1: monoclonal antibody 244-12 (antibody, mouse IgG2b, kappa, V domains shown)
VH: QIQLVQSGPELKKPGETVKISCKASGYTFTNYGMNWVKQAPGKGLKWMGWINTYTGEPTYADDFKGRFAFSLETSANTAYLQINNLRNEGMATYFCARHYRYAWFPYWGQGTLVTVSA
VL: DIQMTQSPASLSASVGETVTITCRASGNIHIYLAWYQQKQGKSPQLLVYNAKTLADGVPSRFSGSGSGTQYSLKINSLQPEDFGSYYCQHFWSIPWTFGGGTKLEIKR
notes: It was detected with an anti-mouse IgG secondary antibody
For B1, the binding result is recorded as “no binding (tested: 2 µg/ml)”.
